T1: RD-ABD1 of PLS2 (human, UniProt P13796 1-375)
T1 sequence: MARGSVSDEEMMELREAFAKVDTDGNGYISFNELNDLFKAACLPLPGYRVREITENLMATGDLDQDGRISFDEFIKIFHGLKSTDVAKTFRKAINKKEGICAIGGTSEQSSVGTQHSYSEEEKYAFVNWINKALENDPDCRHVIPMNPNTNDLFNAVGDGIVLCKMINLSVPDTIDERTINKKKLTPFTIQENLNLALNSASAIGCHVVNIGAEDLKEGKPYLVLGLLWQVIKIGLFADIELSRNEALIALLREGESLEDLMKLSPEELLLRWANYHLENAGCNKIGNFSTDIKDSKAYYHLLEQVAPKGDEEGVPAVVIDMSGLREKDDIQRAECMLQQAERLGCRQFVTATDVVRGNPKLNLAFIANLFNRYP

B1: ABD2 of PLS2, unlabeled (domain or fragment)
chain: DIDWGALEGETREERTFRNWMNSLGVNPRVNHLYSDLSDALVIFQLYEKIKVPVDWNRVNKPPYPKLGGNMKKLENCNYAVELGKNQAKFSLVGIGGQDLNEGNRTLTLALIWQLMRRYTLNILEEIGGGQKVNDDIIVNWVNETLREAKKSSSISSFKDPKISTSLPVLDLIDAIQPGSINYDLLKTENLNDDEKLNNAKYAISMARKIGARVYALPEDLVEVNPKMVMTVFACLMGKGMKRV
B2: fluorescein-labeled ABD2 of PLS2 (domain or fragment)
chain: B1 chain
modifications: fluorescein-5-maleimide (FM) label
B3: full-length PLS2 (plastin 2), wild type (natural protein)
chain: MARGSVSDEEMMELREAFAKVDTDGNGYISFNELNDLFKAACLPLPGYRVREITENLMATGDLDQDGRISFDEFIKIFHGLKSTDVAKTFRKAINKKEGICAIGGTSEQSSVGTQHSYSEEEKYAFVNWINKALENDPDCRHVIPMNPNTNDLFNAVGDGIVLCKMINLSVPDTIDERTINKKKLTPFTIQENLNLALNSASAIGCHVVNIGAEDLKEGKPYLVLGLLWQVIKIGLFADIELSRNEALIALLREGESLEDLMKLSPEELLLRWANYHLENAGCNKIGNFSTDIKDSKAYYHLLEQVAPKGDEEGVPAVVIDMSGLREKDDIQRAECMLQQAERLGCRQFVTATDVVRGNPKLNLAFIANLFNRYPALHKPENQDIDWGALEGETREERTFRNWMNSLGVNPRVNHLYSDLSDALVIFQLYEKIKVPVDWNRVNKPPYPKLGGNMKKLENCNYAVELGKNQAKFSLVGIGGQDLNEGNRTLTLALIWQLMRRYTLNILEEIGGGQKVNDDIIVNWVNETLREAKKSSSISSFKDPKISTSLPVLDLIDAIQPGSINYDLLKTENLNDDEKLNNAKYAISMARKIGARVYALPEDLVEVNPKMVMTVFACLMGKGMKRV
B4: ABD1 of PLS2 (domain or fragment)
chain: EGICAIGGTSEQSSVGTQHSYSEEEKYAFVNWINKALENDPDCRHVIPMNPNTNDLFNAVGDGIVLCKMINLSVPDTIDERTINKKKLTPFTIQENLNLALNSASAIGCHVVNIGAEDLKEGKPYLVLGLLWQVIKIGLFADIELSRNEALIALLREGESLEDLMKLSPEELLLRWANYHLENAGCNKIGNFSTDIKDSKAYYHLLEQVAPKGDEEGVPAVVIDMSGLREKDDIQRAECMLQQAERLGCRQFVTATDVVRGNPKLNLAFIANLFNRYP

Read-outs that look alike come from different tables or passages of the source.

In experiment [1] the target is B4. Briefly: fluorescence polarisation.
The target of experiment [2] is T1, RD-ABD1 of PLS2. In words: fluorescence polarisation. A general note: In fluorescence polarisation assays a small probe gives low polarisation when free and higher when bound to something large.
Experiment [3] has as its target T1, RD-ABD1 of PLS2. Briefly: fluorescence polarisation. This is another data set of the same source.
The target of experiment [4] is T2, F-actin (skeletal muscle actin) ( (rabbit or chicken skeletal …, UniProt P68135 1-377)). In words: fluorescence polarisation.
For experiment [5], the target named is T2, F-actin (skeletal muscle actin). In words: fluorescence polarisation. The source holds these as a separate data set.
Experiment [6] has the same target. Briefly: co-sedimentation.

For orientation: Kd means the concentration at which binding is half-saturated.

On to B1, for which the Kd in experiment [1] is 11.4 ± 0.7 nM; in experiment [2], 3 ± 0.9 nM; in experiment [3] it was 2.9 ± 0.5 nM; in experiment [4] it was 3.6 ± 0.3 nM.
B2 yielded a Kd in experiment [5] of 9.9 ± 3.7 nM.
Consider B3, for which the Kd in experiment [6] turned out to be 5.7 ± 1 µM.
The same measure, in the same setting: with B4 the figure was 2.6 ± 1 µM.

For the origin of these results see article doi:10.1101/2021.12.01.470822 (bioRxiv, 2021).
